Measurements reported in US20230265151A1, “GIP/GLP1 CO-AGONIST COMPOUNDS” (priority 2020, published 2023).

Tests used:
Experiment in all cases: cell-based or functional assay
[1] = molecular target: human glucagon receptor (human, UniProt P47871 26-477)
[2] = molecular target: T1, human GIP receptor (human, UniProt P48546 22-466)
T1 sequence (looked up): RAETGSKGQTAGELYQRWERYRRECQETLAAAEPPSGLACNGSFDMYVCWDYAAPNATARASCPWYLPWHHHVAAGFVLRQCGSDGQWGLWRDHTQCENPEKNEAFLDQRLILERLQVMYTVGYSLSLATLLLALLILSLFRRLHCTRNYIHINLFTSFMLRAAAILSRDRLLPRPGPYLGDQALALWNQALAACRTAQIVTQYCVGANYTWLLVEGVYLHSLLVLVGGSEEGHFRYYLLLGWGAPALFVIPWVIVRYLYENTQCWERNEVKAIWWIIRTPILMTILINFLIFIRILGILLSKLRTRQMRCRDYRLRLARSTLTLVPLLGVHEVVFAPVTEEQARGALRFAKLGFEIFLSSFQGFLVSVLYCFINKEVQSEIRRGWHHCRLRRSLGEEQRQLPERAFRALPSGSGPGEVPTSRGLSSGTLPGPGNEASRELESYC

[3] = molecular target: human GLP-1 receptor (human, UniProt P43220 24-463)

B1: Y-Aib-EGT-αMeF-TSD-αMeF-SI-αMeL-LD-Orn-K((2-[2-(2-Amino-ethoxy)-ethoxy]-acetyl)2-(γ-Glu)-CO-(CH2)12-CO2H)AQ-Aib-EFI-(D-Glu)-αMeY-LIEGGK((2-[2-(2-Amino-ethoxy)-e … (peptide)
peptide: YXEGTXTSDXSIXLDXKAQXEFIXXLIEGGKSSGAPPPS
modifications: Aib2, αMeF6, αMeF10, αMeL13, Orn16, Aib20, D-Glu24, αMeY25; acylated K17, K31 (groups as in name); C-terminal amide
cAMP EC50 (1.0% HSA) [1]: > 9950 nM
cAMP EC50 (1.0% HSA) [2]: 13.7 nM
cAMP Emax (1.0% HSA) [2]: 72.5%
cAMP EC50 (1.0% HSA) [3]: 387 nM

B2: Y-Aib-EGT-αMeF(2F)-TSD-hTyr-SI-αMeL-LD-Orn-K((2-[2-(2-Amino-ethoxy)-ethoxy]-acetyl)2-(γ-Glu)-CO-(CH2)12-CO2H)AQ-Aib-EFI-(D-Glu)-αMeY-LIEGGK((2-[2-(2-Amino-ethox … (peptide)
peptide: YXEGTXTSDXSIXLDXKAQXEFIXXLIEGGKSSGAPPPS
modifications: Aib2, αMeF(2F)6, hTyr10, αMeL13, Orn16, Aib20, D-Glu24, αMeY25; acylated K17, K31 (groups as in name); C-terminal amide
cAMP EC50 (1.0% HSA) [1]: > 9950 nM
cAMP EC50 (1.0% HSA) [2]: 1.52 nM
cAMP EC50 (1.0% HSA) [3]: 16.2 nM

B3: Y-Aib-EGT-αMeF-TSD-4Pal-SI-αMeL-LD-Orn-K((2-[2-(2-Amino-ethoxy)-ethoxy]-acetyl)2-(γ-Glu)-CO-(CH2)12-CO2H)AQ-Aib-EFI-(D-Glu)-αMeF-LIEGGK((2-[2-(2-Amino-ethoxy)-e … (peptide)
peptide: YXEGTXTSDXSIXLDXKAQXEFIXXLIEGGKSSGAPPPS
modifications: Aib2, αMeF6, 4Pal10, αMeL13, Orn16, Aib20, D-Glu24, αMeF25; acylated K17, K31 (groups as in name); C-terminal amide
cAMP EC50 (1.0% HSA) [1]: > 9950 nM
cAMP EC50 (1.0% HSA) [2]: 2.12 nM
cAMP EC50 (1.0% HSA) [3]: 118 nM

B4: Y-Aib-EGT-αMeF(2F)-TSD-Ac6c-SI-αMeL-LD-Orn-K((2-[2-(2-Amino-ethoxy)-ethoxy]-acetyl)2-(γ-Glu)-CO-(CH2)12-CO2H)AQ-Aib-EFI-(D-Glu)-αMeY-LIEGGK((2-[2-(2-Amino-ethox … (peptide)
peptide: YXEGTXTSDXSIXLDXKAQXEFIXXLIEGGKSSGAPPPS
modifications: Aib2, αMeF(2F)6, Ac6c10, αMeL13, Orn16, Aib20, D-Glu24, αMeY25; acylated K17, K31 (groups as in name); C-terminal amide
cAMP EC50 (1.0% HSA) [1]: > 9950 nM
cAMP EC50 (1.0% HSA) [2]: 0.865 nM
cAMP EC50 (1.0% HSA) [3]: 20.3 nM

B5: Y-Aib-EGT-αMeF-TSD-4Pal-SI-αMeF-LD-Orn-K((2-[2-(2-Amino-ethoxy)-ethoxy]-acetyl)2-(γ-Glu)-CO-(CH2)12-CO2H)AQ-Aib-EFI-(D-Glu)-αMeY-LIEGGK((2-[2-(2-Amino-ethoxy)-e … (peptide)
peptide: YXEGTXTSDXSIXLDXKAQXEFIXXLIEGGKSSGAPPPS
modifications: Aib2, αMeF6, 4Pal10, αMeF13, Orn16, Aib20, D-Glu24, αMeY25; acylated K17, K31 (groups as in name); C-terminal amide
cAMP EC50 (1.0% HSA) [1]: > 9950 nM
cAMP EC50 (1.0% HSA) [2]: 12.8 nM
cAMP Emax (1.0% HSA) [2]: 73.3%
cAMP EC50 (1.0% HSA) [3]: 261 nM

B6: Y-Aib-EGT-αMeF(2F)-TSD-Nle-SI-αMeL-LD-Orn-K((2-[2-(2-Amino-ethoxy)-ethoxy]-acetyl)2-(γ-Glu)-CO-(CH2)12-CO2H)AQ-Aib-EFI-(D-Glu)-αMeY-LIEGGK((2-[2-(2-Amino-ethoxy … (peptide)
peptide: YXEGTXTSDXSIXLDXKAQXEFIXXLIEGGKSSGAPPPS
modifications: Aib2, αMeF(2F)6, Nle10, αMeL13, Orn16, Aib20, D-Glu24, αMeY25; acylated K17, K31 (groups as in name); C-terminal amide
cAMP EC50 (1.0% HSA) [1]: > 9950 nM
cAMP EC50 (1.0% HSA) [2]: 1.2 nM
cAMP EC50 (1.0% HSA) [3]: 28.5 nM

B7: Y-Aib-EGT-αMeF(2F)-TSD-Bip-SI-αMeL-LD-Orn-K((2-[2-(2-Amino-ethoxy)-ethoxy]-acetyl)2-(γ-Glu)-CO-(CH2)12-CO2H)AQ-Aib-EFI-(D-Glu)-αMeY-LIEGGK((2-[2-(2-Amino-ethoxy … (peptide)
peptide: YXEGTXTSDXSIXLDXKAQXEFIXXLIEGGKSSGAPPPS
modifications: Aib2, αMeF(2F)6, Bip10, αMeL13, Orn16, Aib20, D-Glu24, αMeY25; acylated K17, K31 (groups as in name); C-terminal amide
cAMP EC50 (1.0% HSA) [1]: > 9950 nM
cAMP EC50 (1.0% HSA) [2]: 6.62 nM
cAMP EC50 (1.0% HSA) [3]: 70.5 nM

B8: Y-Aib-EGT-αMeF(2F)-TSD-Ac5c-SI-αMeL-LD-Orn-K((2-[2-(2-Amino-ethoxy)-ethoxy]-acetyl)2-(γ-Glu)-CO-(CH2)12-CO2H)AQ-Aib-EFI-(D-Glu)-αMeY-LIEGGK((2-[2-(2-Amino-ethox … (peptide)
peptide: YXEGTXTSDXSIXLDXKAQXEFIXXLIEGGKSSGAPPPS
modifications: Aib2, αMeF(2F)6, Ac5c10, αMeL13, Orn16, Aib20, D-Glu24, αMeY25; acylated K17, K31 (groups as in name); C-terminal amide
cAMP EC50 (1.0% HSA) [1]: > 9950 nM
cAMP EC50 (1.0% HSA) [2]: 3.53 nM
cAMP EC50 (1.0% HSA) [3]: 13.2 nM
cAMP Emax (1.0% HSA) [3]: 89.3%

B9: Y-Aib-EGT-αMeF(2F)-TSDY-Aib-I-αMeL-LD-Orn-K((2-[2-(2-Amino-ethoxy)-ethoxy]-acetyl)2-(γ-Glu)-CO-(CH2)12-CO2H)AQ-Aib-EFI-(D-Glu)-αMeY-LIEGGK((2-[2-(2-Amino-ethoxy … (peptide)
peptide: YXEGTXTSDYXIXLDXKAQXEFIXXLIEGGKSSGAPPPS
modifications: Aib2, αMeF(2F)6, Aib11, αMeL13, Orn16, Aib20, D-Glu24, αMeY25; acylated K17, K31 (groups as in name); C-terminal amide
cAMP EC50 (1.0% HSA) [1]: > 9950 nM
cAMP EC50 (1.0% HSA) [2]: 1.81 nM
cAMP Emax (1.0% HSA) [2]: 91.4%
cAMP EC50 (1.0% HSA) [3]: 27.8 nM

B10: Y-Aib-EGT-αMeF(2F)-TSD-αMeL-SI-aMeL-LD-Orn-K((2-[2-(2-Amino-ethoxy)-ethoxy]-acetyl)2-(γ-Glu)-CO-(CH2)12-CO2H)AQ-Aib-EFI-(D-Glu)-αMeY-LIEGGK((2-[2-(2-Amino-ethox … (peptide)
peptide: YXEGTXTSDXSIXLDXKAQXEFIXXLIEGGKSSGAPPPS
modifications: Aib2, αMeF(2F)6, αMeL10, αMeL13, Orn16, Aib20, D-Glu24, αMeY25; acylated K17, K31 (groups as in name); C-terminal amide
cAMP EC50 (1.0% HSA) [1]: > 9950 nM
cAMP EC50 (1.0% HSA) [2]: 15.8 nM
cAMP EC50 (1.0% HSA) [3]: 100 nM

B11: Y-Aib-EGT-αMeF(2F)-TSD-2Nal-SI-αMeL-LD-Orn-K((2-[2-(2-Amino-ethoxy)-ethoxy]-acetyl)2-(γ-Glu)-CO-(CH2)12-CO2H)AQ-Aib-EFI-(D-Glu)-αMeY-LIEGGK((2-[2-(2-Amino-ethox … (peptide)
peptide: YXEGTXTSDXSIXLDXKAQXEFIXXLIEGGKSSGAPPPS
modifications: Aib2, αMeF(2F)6, 2Nal10, αMeL13, Orn16, Aib20, D-Glu24, αMeY25; acylated K17, K31 (groups as in name); C-terminal amide
cAMP EC50 (1.0% HSA) [1]: > 9950 nM
cAMP EC50 (1.0% HSA) [2]: 4.55 nM
cAMP EC50 (1.0% HSA) [3]: 39.3 nM

B12: Y-Aib-EGT-αMeF(2F)-TSD-4Pal-SI-αMeL-LD-Orn-K((2-[2-(2-Amino-ethoxy)-ethoxy]-acetyl)2-(γ-Glu)-CO-(CH2)12-CO2H)AQ-Aib-E-(2ClPhe)-I-(D-Glu)-αMeY-LIEGGK((2-[2-(2-Am … (peptide)
peptide: YXEGTXTSDXSIXLDXKAQXEXIXXLIEGGKSSGAPPPS
modifications: Aib2, αMeF(2F)6, 4Pal10, αMeL13, Orn16, Aib20, 2ClPhe22, D-Glu24, αMeY25; acylated K17, K31 (groups as in name); C-terminal amide
cAMP EC50 (1.0% HSA) [1]: > 9950 nM
cAMP EC50 (1.0% HSA) [2]: 0.744 nM
cAMP Emax (1.0% HSA) [2]: 92.8%
cAMP EC50 (1.0% HSA) [3]: 36.9 nM
cAMP Emax (1.0% HSA) [3]: 89.7%

B13: Y-Aib-EGT-αMeF(2F)-TSD-OMeY-SI-αMeL-LD-Orn-K((2-[2-(2-Amino-ethoxy)-ethoxy]-acetyl)2-(γ-Glu)-CO-(CH2)12-CO2H)AQ-Aib-EFI-(D-Glu)-αMeY-LIEGGK((2-[2-(2-Amino-ethox … (peptide)
peptide: YXEGTXTSDXSIXLDXKAQXEFIXXLIEGGKSSGAPPPS
modifications: Aib2, αMeF(2F)6, OMeY10, αMeL13, Orn16, Aib20, D-Glu24, αMeY25; acylated K17, K31 (groups as in name); C-terminal amide
cAMP EC50 (1.0% HSA) [1]: > 9950 nM
cAMP EC50 (1.0% HSA) [2]: 1.12 nM
cAMP EC50 (1.0% HSA) [3]: 21.6 nM

B14: Y-Aib-EGT-αMeF(2F)-TSDY-aMeS-I-αMeL-LD-Orn-K((2-[2-(2-Amino-ethoxy)-ethoxy]-acetyl)2-(γ-Glu)-CO-(CH2)12-CO2H)AQ-Aib-EFI-(D-Glu)-αMeY-LIEGGK((2-[2-(2-Amino-ethox … (peptide)
peptide: YXEGTXTSDYXIXLDXKAQXEFIXXLIEGGKSSGAPPPS
modifications: Aib2, αMeF(2F)6, αMeS11, αMeL13, Orn16, Aib20, D-Glu24, αMeY25; acylated K17, K31 (groups as in name); C-terminal amide
cAMP EC50 (1.0% HSA) [1]: > 9950 nM
cAMP EC50 (1.0% HSA) [2]: 1.51 nM
cAMP Emax (1.0% HSA) [2]: 92.4%
cAMP EC50 (1.0% HSA) [3]: 20.1 nM

B15: Y-Aib-EGT-αMeF(2F)-TSD-aMeV-SI-αMeL-LD-Orn-K((2-[2-(2-Amino-ethoxy)-ethoxy]-acetyl)2-(γ-Glu)-CO-(CH2)12-CO2H)AQ-Aib-EFI-(D-Glu)-αMeY-LIEGGK((2-[2-(2-Amino-ethox … (peptide)
peptide: YXEGTXTSDXSIXLDXKAQXEFIXXLIEGGKSSGAPPPS
modifications: Aib2, αMeF(2F)6, αMeV10, αMeL13, Orn16, Aib20, D-Glu24, αMeY25; acylated K17, K31 (groups as in name); C-terminal amide
cAMP EC50 (1.0% HSA) [1]: > 9950 nM
cAMP EC50 (1.0% HSA) [2]: 18.6 nM
cAMP EC50 (1.0% HSA) [3]: 37.8 nM
